Target: HLA-A*0201 MART-1 peptide complex on peptide-loaded K562 cells (human)
Experiment: cell-based or functional assay

Substance: MART-1/Melan-A specific TCR DMF5
- CD25 Fold Change (TCR-transduced CD8+ Jurkat KO cells co-cultured with peptide-loaded K562 APCs): 235 fold
- CD69 Fold Change (TCR-transduced CD8+ Jurkat KO cells co-cultured with peptide-loaded K562 APCs): 45 fold
- IL2 Fold Change (TCR-transduced CD8+ Jurkat KO cells co-cultured with peptide-loaded K562 APCs): 33 fold

Reference: patent US20230041030A1
